The labels stand for the following.
B1: Mitochondrial import receptor subunit TOM70 (Homo sapiens), O94826 (parent)
chain: MAASKPVEAAVVAAAVPSSGSGVGGGGTAGPGTGGLPRWQLALAVGAPLLLGAGAIYLWSRQQRRREARGRGDASGLKRNSERKTPEGRASPAPGSGHPEGPGAHLDMNSLDRAQAAKNKGNKYFKAGKYEQAIQCYTEAISLCPTEKNVDLSTFYQNRAAAFEQLQKWKEVAQDCTKAVELNPKYVKALFRRAKAHEKLDNKKECLEDVTAVCILEGFQNQQSMLLADKVLKLLGKEKAKEKYKNREPLMPSPQFIKSYFSSFTDDIISQPMLKGEKSDEDKDKEGEALEVKENSGYLKAKQYMEEENYDKIISECSKEIDAEGKYMAEALLLRATFYLLIGNANAAKPDLDKVISLKEANVKLRANALIKRGSMYMQQQQPLLSTQDFNMAADIDPQNADVYHHRGQLKILLDQVEEAVADFDECIRLRPESALAQAQKCFALYRQAYTGNNSSQIQAAMKGFEEVIKKFPRCAEGYALYAQALTDQQQFGKADEMYDKCIDLEPDNATTYVHKGLLQLQWKQDLDRGLELISKAIEIDNKCDFAYETMGTIEVQRGNMEKAIDMFNKAINLAKSEMEMAHLYSLCDAAHAQTEVAKKYGLKPPTL

Experimental findings from IntAct's records for PubMed 33990585 are described below.

The variants in the test derive from B1. The note with it: with orf9b_sars2 orf9b.
In the case of E549I, the “effect of a mutation on the interaction” value is “decreasing interaction strength”.

On to E549A, for which the “effect of a mutation on the interaction” value is on record as “decreasing interaction strength”.

Take H583Q: the “effect of a mutation on the interaction” value is given as “with no effect”.

Regarding E477A, the “effect of a mutation on the interaction” value is given as “decreasing interaction strength”.

In the case of D545A, the “effect of a mutation on the interaction” value is listed as “decreasing interaction strength”.
